The results in this text go back to the supplement of paper PMC11246515.

The data set is described as follows: total protein half-life in vivo (active degradation + dilution); higher = more stable protein.
The mark [1] stands for this setting: E. coli NCM3722 delta-clpP, growth: N-lim chemostat, doubling time 6 h.
The mark [2] stands for this setting: E. coli NCM3722 delta-hslV, growth: N-lim chemostat, doubling time 6 h.
Setting [3] is: E. coli NCM3722 delta-lon, growth: N-lim chemostat, doubling time 6 h.
[4] abbreviates: E. coli NCM3722 delta-smpB, growth: N-lim chemostat, doubling time 6 h.
[5] abbreviates: wild type E. coli NCM3722, growth: C-lim chemostat, doubling time 3 h.
[6] abbreviates: wild type E. coli NCM3722, growth: C-lim chemostat, doubling time 6 h.
[7] abbreviates: wild type E. coli NCM3722, growth: C-lim chemostat, doubling time 12 h.
The mark [8] stands for this setting: wild type E. coli NCM3722, growth: N-lim chemostat, doubling time 6 h.
[9] abbreviates: wild type E. coli NCM3722, growth: P-lim chemostat, doubling time 12 h.
The mark [10] stands for this setting: E. coli NCM3722 delta-clpP delta-lon delta-hslV, growth: N-lim chemostat, doubling time 6 h.
[11] abbreviates: wild type E. coli NCM3722, growth: N-lim chemostat, doubling time 12 h.
Setting [12] is: wild type E. coli NCM3722, growth: P-lim chemostat, doubling time 6 h.

± gives the standard deviation of the averaged measurements.

As for “MSNILIINGAKKFAHSNGQLNDTLTEVADGTLRDLGHDVRIVRADSDYDVKAEVQNFLWADVVIWQMPGWWMGAPWTVKKYIDDVFTEGHGTLYASDGRTRKDPSKKYGSGGLVQGKKYMLSLTWNAPMEAFTEKDQFFHGVGVDGVYLPFHKANQFLGMEPLPTFIANDVIKMPDVPRYTEEYRKHLVEIFG [P0AEY5]”, the “total protein half-life in vivo” value was determined as 1.93 ± 0.14 h under setting [1]; 1.94 ± 0.091 h under setting [2]; 2.18 ± 0.044 h under setting [3]; 2.27 ± 0.32 h under setting [4]; 3.31 ± 0.43 h under setting [5]; 4.76 ± 0.2 h under setting [6]. For the same sequence, the “total protein half-life in vivo” value is, setting by setting: under setting [7], 6.6 ± 0.75 h; under setting [8], 2.12 ± 0.18 h; under setting [9], 8.32 ± 0.26 h.
In the case of “MKTNIKVFTSTGELTTLGRELGKGGEGAVYDIEEFVDSVAKIYHTPPPALKQDKLAFMAATADAQLLNYVAWPQATLHGGRGGKVIGFMMPKVSGKEPIHMIYSPAHRRQSYPHCAWDFLLYVARNIASSFATVHEHGHVVGDVNQNSFMVGRDSKVVLIDSDSFQINANGTLHLCEVGVSHFTPPELQTLPSFVGFERTENHDNFGLALLIFHVLFGGRHPYSGVPLISDAGNALETDITHFRYAYASDNQRRGLKPPPRSIPLSMLPSDVEAMFQQAFTESGVATGRPTAKAWVAALDSLRQQLKKCIVSAMHVYPAHLTDCPWCALDNQGVIYFIDLGEEVITTGGNFVLAKVWAMVMASVAPPALQLPLPDHFQPTGRPLPLGLLRREYIILLEIALSALSLLLCGLQAEPRYIILVPVLAAIWIIGSLTSKAYKAEVQQRREAFNRAKMDYDHLVRQIQQVGGLEGFIAKRTMLEKMKDEILGLPEEEKRALAALHDTARERQKQKFLEGFFIDVASIPGVGPARKAALRSFGIETAADVTRRGVKQVKGFGDHLTQAVIDWKASCERRFVFRPNEAITPADRQAVMAKMTAKRHRLESALTVGATELQRFRLHAPARTMPLMEPLRQAAEKLAQAQADLSRC”, the “total protein half-life in vivo” value reads like this: under setting [10], 4.54 h; under setting [1], 4.86 h.
Consider “MIEFSHVSKLFGAQKAVNDLNLNFQEGSFSVLIGTSGSGKSTTLKMINRLVEHDSGEIRFAGEEIRSLPVLELRRRMGYAIQSIGLFPHWSVAQNIATVPQLQKWSRARIDDRIDELMALLGLESNLRERYPHQLSGGQQQRVGVARALAADPQVLLMDEPFGALDPVTRGALQQEMTRIHRLLGRTIVLVTHDIDEALRLAEHLVLMDHGEVVQQGNPLTMLTRPANDFVRQFFGRSELGVRLLSLRSVADYVRREERADGEALAEEMTLRDALSLFVARGCEVLPVVNMQGQPCGTLHFQDLLVEA”, for which the “total protein half-life in vivo” value came to 5.87 ± 0.78 h under setting [10]; 5.31 ± 0.036 h under setting [1]; 4.82 h under setting [3]; 4.51 ± 0.06 h under setting [4]; 2.77 ± 0.11 h under setting [5]; 4.96 ± 0.22 h under setting [6]. For the same sequence, the “total protein half-life in vivo” value by setting is: under setting [7], 8.02 ± 0.57 h; under setting [8], 5.05 ± 0.085 h; under setting [11], 7.777 ± 0.046 h; under setting [12], 4.85 ± 0.33 h; under setting [9], 8.835 ± 0.04 h.
Regarding “MTQKIEQSQRQERVAAWNRRAECDLAAFQNSPKQTYQAEKARDRKLCANLEEAIRRSGLQDGMTVSFHHAFRGGDLTVNMVMDVIAKMGFKNLTLASSSLSDCHAPLVEHIRQGVVTRIYTSGLRGPLAEEISRGLLAEPVQIHSHGGRVHLVQSGELNIDVAFLGVPSCDEFGNANGYTGKACCGSLGYAIVDADNAKQVVMLTEELLPYPHNPASIEQDQVDLIVKVDRVGDAAKIGAGATRMTTNPRELLIARSAADVIVNSGYFKEGFSMQTGTGGASLAVTRFLEDKMRSRDIRADFALGGITATMVDLHEKGLIRKLLDVQSFDSHAAQSLARNPNHIEISANQYANWGSKGASVDRLDVVVLSALEIDTQFNVNVLTGSDGVLRGASGGHCDTAIASALSIIVAPLVRGRIPTLVDNVLTCITPGSSVDILVTDHGIAVNPARPELAERLQEAGIKVVSIEWLRERARLLTGEPQPIEFTDRVVAVVRYRDGSVIDVVHQVKE”, the “total protein half-life in vivo” value under setting [7] is > 16 h.
On to “MTFSLFGDKFTRHSGITLLMEDLNDGLRTPGAIMLGGGNPAQIPEMQDYFQTLLTDMLESGKATDALCNYDGPQGKTELLTLLAGMLREKLGWDIEPQNIALTNGSQSAFFYLFNLFAGRRADGRVKKVLFPLAPEYIGYADAGLEEDLFVSARPNIELLPEGQFKYHVDFEHLHIGEETGMICVSRPTNPTGNVITDEELLKLDALANQHGIPLVIDNAYGVPFPGIIFSEARPLWNPNIVLCMSLSKLGLPGSRCGIIIANEKIITAITNMNGIISLAPGGIGPAMMCEMIKRNDLLRLSETVIKPFYYQRVQETIAIIRRYLPENRCLIHKPEGAIFLWLWFKDLPITTKQLYQRLKARGVLMVPGHNFFPGLDKPWPHTHQCMRMNYVPEPEKIEAGVKILAEEIERAWAESH”, for which the “total protein half-life in vivo” value came out at 3.05 ± 0.33 h under setting [10]; 2.32 ± 0.096 h under setting [1]; 2.53 ± 0.12 h under setting [2]; 2.72 ± 0.059 h under setting [3]; 2.76 ± 0.11 h under setting [4]; 4.26 ± 0.073 h under setting [6]. For the same sequence, the “total protein half-life in vivo” value by setting is: under setting [7], 7.25 ± 0.17 h; under setting [8], 2.46 ± 0.28 h; under setting [11], 3.33 ± 0.17 h; under setting [12], 4.994 ± 0.0076 h; under setting [9], 9.24 ± 0.47 h.
As for “MLEILYQDEWLVAVNKPSGWLVHRSWLDRDEKVVVMQTVRDQIGQHVFTAHRLDRPTSGVLLMGLSSEAGRLLAQQFEQHQIQKRYHAIVRGWLMEEAVLDYPLVEELDKIADKFAREDKGPQPAVTHYRGLATVEMPVATGRYPTTRYGLVELEPKTGRKHQLRRHLAHLRHPIIGDSKHGDLRQNRSGAEHFGLQRLMLHASQLSLTHPFTGEPLTIHAGLDDTWMQALSQFGWRGLLPENERVEFSAPSGQDGEISS [P0AA41]”, the “total protein half-life in vivo” value reads like this: under setting [10], 4.78 ± 0.18 h; under setting [1], 4.49 ± 0.16 h; under setting [2], 4.87 ± 0.88 h; under setting [3], 4.49 h; under setting [4], 4.34 ± 0.19 h; under setting [5], 3 ± 0.28 h. The “total protein half-life in vivo” value by setting is: under setting [7], 11.8 ± 0.17 h; under setting [8], 5.27 ± 1.3 h; under setting [11], 6.98 h; under setting [12], 5.28 ± 0.23 h; under setting [9], 10.91 ± 0.044 h.
On to “MVPVVALVGRPNVGKSTLFNRLTRTRDALVADFPGLTRDRKYGRAEIEGREFICIDTGGIDGTEDGVETRMAEQSLLAIEEADVVLFMVDARAGLMPADEAIAKHLRSREKPTFLVANKTDGLDPDQAVVDFYSLGLGEIYPIAASHGRGVLSLLEHVLLPWMEDLAPQEEVDEDAEYWAQFEAEENGEEEEEDDFDPQSLPIKLAIVGRPNVGKSTLTNRILGEERVVVYDMPGTTRDSIYIPMERDGREYVLIDTAGVRKRGKITDAVEKFSVIKTLQAIEDANVVMLVIDAREGISDQDLSLLGFILNSGRSLVIVVNKWDGLSQEVKEQVKETLDFRLGFIDFARVHFISALHGSGVGNLFESVREAYDSSTRRVGTSMLTRIMTMAVEDHQPPLVRGRRVKLKYAHAGGYNPPIVVIHGNQVKDLPDSYKRYLMNYFRKSLDVMGSPIRIQFKEGENPYANKRNTLTPTQMRKRKRLMKHIKKNK [P0A6P5]”, for which the “total protein half-life in vivo” value was determined as 5.18 ± 0.36 h under setting [10]; 5.53 ± 0.68 h under setting [1]; 4.51 ± 0.067 h under setting [2]; 4.88 ± 0.11 h under setting [3]; 4.59 ± 0.29 h under setting [4]; 3.2 ± 0.2 h under setting [5]. For the same sequence, the “total protein half-life in vivo” value under setting [6] is 5.55 ± 0.11 h; the “total protein half-life in vivo” value under setting [7] was found to be 10.3 ± 0.65 h; the “total protein half-life in vivo” value under setting [8] is 4.6 ± 0.16 h; the “total protein half-life in vivo” value under setting [11] was found to be 7.38 ± 0.25 h; the “total protein half-life in vivo” value under setting [12] amounted to 5.43 ± 0.67 h; the “total protein half-life in vivo” value under setting [9] came to 10.8 ± 0.39 h.
